Experiments:
[1] = target: T1, A-PaPPO (activated polyphenol oxidase from apricot) (Prunus armeniaca, UniProt O81103); experiment: in-gel activity staining, partially denaturing SDS-PAGE; format: biochemical; conditions: 0.2 M catechol, 50 mM sodium citrate pH 6.5, 25 °C
T1 construct: gene PPO; native, from fruit; C-terminal domain lost during storage at 4 °C; 38 kDa by SDS-PAGE
T1 sequence (O81103 102-429): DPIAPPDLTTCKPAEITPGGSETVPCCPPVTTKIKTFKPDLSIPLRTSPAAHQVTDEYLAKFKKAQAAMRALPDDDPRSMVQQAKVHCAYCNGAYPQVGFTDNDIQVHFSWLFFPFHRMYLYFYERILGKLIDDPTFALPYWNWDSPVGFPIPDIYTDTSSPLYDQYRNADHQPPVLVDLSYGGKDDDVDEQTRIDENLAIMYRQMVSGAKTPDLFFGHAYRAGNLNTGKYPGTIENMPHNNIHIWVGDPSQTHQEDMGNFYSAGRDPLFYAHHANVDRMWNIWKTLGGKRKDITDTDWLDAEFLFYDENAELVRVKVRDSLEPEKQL

[2] = target: T2, L-PaPPO (latent polyphenol oxidase from apricot) (Prunus armeniaca, UniProt O81103); experiment: quinone formation, absorbance, microplate reader; nonlinear regression; format: biochemical; conditions: 50 mM sodium citrate pH 4.5, 25 °C, no SDS; triphenol substrate; latent enzyme activated in the assay
T2 construct: gene PPO; native, purified from fruit; latent mature form Asp102-Ser597 (496 residues), transit peptide removed; 63 kDa by SDS-PAGE; no tag
Text: (§1) quinone formation, absorbance, microplate reader; nonlinear regression on L-PaPPO (latent polyphenol oxidase from apricot)

[3] = target: T2, L-PaPPO (latent polyphenol oxidase from apricot); experiment: inhibition of catechol oxidation, absorbance; format: biochemical; conditions: for activity at 1000 µM: read-out: 1 mM
Text: inhibition of catechol oxidation, absorbance on L-PaPPO (latent polyphenol oxidase from apricot)

purified protein = substrate: O=C(/C=C/c1ccc(O)c(O)c1)O[C@@H]1C[C@](O)(C(=O)O)C[C@@H](O)[C@H]1O; experiment: purified protein; conditions: 50 mM sodium citrate pH 4.5, 25 °C, no SDS, diphenolase, latent enzyme activated in the assay
[4] = substrate: Cc1ccc(O)c(O)c1; experiment: quinone formation, absorbance, microplate reader; nonlinear regression; format: biochemical, Prunus armeniaca; conditions: 50 mM sodium citrate pH 4.5, 25 °C, no SDS, diphenolase, latent enzyme activated in the assay
Text: as §1

[5] = substrate: Oc1ccccc1O; experiment: as above; format: biochemical, Prunus armeniaca; conditions: 50 mM sodium citrate pH 4.5, 25 °C, no SDS, diphenolase, latent enzyme activated in the assay
Text: as §1

Molecule: Oc1ccccc1O [catechol]
- in-gel activity staining, partially denaturing SDS-PAGE [1]: single band was detected by in-gel enzymatic activity staining with catechol as substrate

Molecule: Oc1cccc(O)c1O [pyrogallol]
- Km [2]: 11 ± 1.5 mM

Molecule: O=c1cc(CO)occ1O [kojic acid]
- activity at 1000 µM [3]: 28 ± 1.1%

Molecule: O=C(O)CCC(=O)O [succinic acid]
- activity at 10000 µM ([3]; read-out: 10 mM): 89.1 ± 0.53%

Molecule: O=C(O)c1ccccc1 [benzoic acid]
- activity at 1000 µM [3]: 41 ± 1.2%

Molecule: CCCCCCc1ccc(O)cc1O [4-hexylresorcinol]
- activity at 100 µM ([3]; read-out: 0.1 mM): 34 ± 1.4%

B1: L-PaPPO (latent polyphenol oxidase from apricot) (Prunus armeniaca) (protein)
chain: DPIAPPDLTTCKPAEITPGGSETVPCCPPVTTKIKTFKPDLSIPLRTSPAAHQVTDEYLAKFKKAQAAMRALPDDDPRSMVQQAKVHCAYCNGAYPQVGFTDNDIQVHFSWLFFPFHRMYLYFYERILGKLIDDPTFALPYWNWDSPVGFPIPDIYTDTSSPLYDQYRNADHQPPVLVDLSYGGKDDDVDEQTRIDENLAIMYRQMVSGAKTPDLFFGHAYRAGNLNTGKYPGTIENMPHNNIHIWVGDPSQTHQEDMGNFYSAGRDPLFYAHHANVDRMWNIWKTLGGKRKDITDTDWLDAEFLFYDENAELVRVKVRDSLEPEKQLRYNYEPVSLPWLFTKPTARKTKNKTKAKVAATQLTSKFPATLVEVTTVEVARPKPRKRSKKEKVDEEELLIIKDIEFEGTEAVKFDVFINDDAESLSRRDKSEFAGSFVHVPQGKTTKAKTKTNLKLGITDLLEDLGAEDDSSVLVTLVPRVSNSPITIGGFKIEYSS
notes: native, purified from fruit; latent mature form Asp102-Ser597 (496 residues), transit peptide removed; 63 kDa by SDS-PAGE; no tag
- Km (purified protein): 2.7 ± 0.16 mM
- kcat (purified protein): 1400 s⁻¹
- kcat/Km (purified protein): 500000 M⁻¹ s⁻¹
- Km [4]: 2.0 ± 0.26 mM
- kcat [4]: 700 ± 110 s⁻¹
- kcat/Km [4]: 340000 ± 70000 M⁻¹ s⁻¹
- Km [5]: 5.3 ± 0.60 mM
- kcat [5]: 210 ± 30 s⁻¹
- kcat/Km [5]: 40000 ± 10000 M⁻¹ s⁻¹
